Test results from patent EP4745153A1, “GLP-1, GIP AND GCG RECEPTOR […] USE THEREOF” (Jiangsu Hengrui Pharmaceuticals Co., Ltd., priority 2023, dated 2025).
Starred links: 1 amine or outer side, 2 acyl side, 3 side chain; linkers in the order of their positions; H or OH if unused. Non-standard residues stand in square brackets, D forms with d. Groups on a side chain read outwards from the residue. No end group written: not given here. *: point of attachment. C20 diacid = O=C(O)CCCCCCCCCCCCCCCCCCC(=O)*; γGlu = O=C(O)[C@H](CCC(=O)[*:2])N[*:1]; αMeL = CC(C)C[C@](C)(N)C(=O)O; αMeK = C[C@](N)(CCCCN)C(=O)O; AEEA = NCCOCCOCC(=O)O; Aib = CC(C)(N)C(=O)O

T1: human glucose-dependent insulinotropic polypeptide receptor (human, UniProt P48546 22-466)
T1 sequence (looked up): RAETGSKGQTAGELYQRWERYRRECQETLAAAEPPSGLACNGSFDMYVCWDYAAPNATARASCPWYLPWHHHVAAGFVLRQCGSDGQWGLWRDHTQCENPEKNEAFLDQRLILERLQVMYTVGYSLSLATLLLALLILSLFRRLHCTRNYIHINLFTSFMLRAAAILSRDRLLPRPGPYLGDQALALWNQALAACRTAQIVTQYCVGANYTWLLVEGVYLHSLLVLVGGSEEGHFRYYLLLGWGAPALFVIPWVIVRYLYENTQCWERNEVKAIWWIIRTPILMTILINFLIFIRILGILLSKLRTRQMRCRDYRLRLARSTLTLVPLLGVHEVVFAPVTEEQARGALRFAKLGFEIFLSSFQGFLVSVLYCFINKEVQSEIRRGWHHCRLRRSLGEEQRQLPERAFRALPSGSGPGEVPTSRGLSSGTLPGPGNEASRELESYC

B1: Compound No. 0112 (peptide)
peptide: H[Aib]HGTFTSDYS[αMeK]LLEK([AEEA-AEEA-γGlu-C20 diacid])KAAQEFVEWLLAGGPSSGAPPPS-NH2
modifications: N-terminus assumed
SMILES: CC(C)C[C@H](NC(=O)[C@H](CC(C)C)NC(=O)[C@H](Cc1c[nH]c2ccccc12)NC(=O)[C@H](CCC(=O)O)NC(=O)[C@@H](NC(=O)[C@H](Cc1ccccc1)NC(=O)[C@H](CCC(=O)O)NC(=O)[C@H](CCC(N)=O)NC(=O)[C@H](C)NC(=O)[C@H](C)NC(=O)[C@H](CCCCN)NC(=O)[C@H](CCCCNC(=O)COCCOCCNC(=O)COCCOCCNC(=O)CC[C@H](NC(=O)CCCCCCCCCCCCCCCCCCC(=O)O)C(=O)O)NC(=O)[C@H](CCC(=O)O)NC(=O)[C@H](CC(C)C)NC(=O)[C@H](CC(C)C)NC(=O)[C@](C)(CCCCN)NC(=O)[C@H](CO)NC(=O)[C@H](Cc1ccc(O)cc1)NC(=O)[C@H](CC(=O)O)NC(=O)[C@H](CO)NC(=O)[C@@H](NC(=O)[C@H](Cc1ccccc1)NC(=O)[C@@H](NC(=O)CNC(=O)[C@H](Cc1c[nH]cn1)NC(=O)C(C)(C)NC(=O)[C@@H](N)Cc1c[nH]cn1)[C@@H](C)O)[C@@H](C)O)C(C)C)C(=O)N[C@@H](C)C(=O)NCC(=O)NCC(=O)N1CCC[C@H]1C(=O)N[C@@H](CO)C(=O)N[C@@H](CO)C(=O)NCC(=O)N[C@@H](C)C(=O)N1CCC[C@H]1C(=O)N1CCC[C@H]1C(=O)N1CCC[C@H]1C(=O)N[C@@H](CO)C(N)=O
B2: Compound No. 0152 (peptide)
peptide: H[Aib]HGTFTSDYSILLEK([AEEA-AEEA-γGlu-C20 diacid])QAAQEFVEWLLAGGPSSGAPPPS-NH2
modifications: N-terminus assumed
SMILES: CC[C@H](C)[C@H](NC(=O)[C@H](CO)NC(=O)[C@H](Cc1ccc(O)cc1)NC(=O)[C@H](CC(=O)O)NC(=O)[C@H](CO)NC(=O)[C@@H](NC(=O)[C@H](Cc1ccccc1)NC(=O)[C@@H](NC(=O)CNC(=O)[C@H](Cc1c[nH]cn1)NC(=O)C(C)(C)NC(=O)[C@@H](N)Cc1c[nH]cn1)[C@@H](C)O)[C@@H](C)O)C(=O)N[C@@H](CC(C)C)C(=O)N[C@@H](CC(C)C)C(=O)N[C@@H](CCC(=O)O)C(=O)N[C@@H](CCCCNC(=O)COCCOCCNC(=O)COCCOCCNC(=O)CC[C@H](NC(=O)CCCCCCCCCCCCCCCCCCC(=O)O)C(=O)O)C(=O)N[C@@H](CCC(N)=O)C(=O)N[C@@H](C)C(=O)N[C@@H](C)C(=O)N[C@@H](CCC(N)=O)C(=O)N[C@@H](CCC(=O)O)C(=O)N[C@@H](Cc1ccccc1)C(=O)N[C@H](C(=O)N[C@@H](CCC(=O)O)C(=O)N[C@@H](Cc1c[nH]c2ccccc12)C(=O)N[C@@H](CC(C)C)C(=O)N[C@@H](CC(C)C)C(=O)N[C@@H](C)C(=O)NCC(=O)NCC(=O)N1CCC[C@H]1C(=O)N[C@@H](CO)C(=O)N[C@@H](CO)C(=O)NCC(=O)N[C@@H](C)C(=O)N1CCC[C@H]1C(=O)N1CCC[C@H]1C(=O)N1CCC[C@H]1C(=O)N[C@@H](CO)C(N)=O)C(C)C
B3: Compound No. 0153 (peptide)
peptide: H[Aib]HGTFTSDYSILLEK([AEEA-AEEA-γGlu-C20 diacid])QAAQEFVEWLLA[dE]GPSSGAPPPS-NH2
modifications: N-terminus assumed
SMILES: CC[C@H](C)[C@H](NC(=O)[C@H](CO)NC(=O)[C@H](Cc1ccc(O)cc1)NC(=O)[C@H](CC(=O)O)NC(=O)[C@H](CO)NC(=O)[C@@H](NC(=O)[C@H](Cc1ccccc1)NC(=O)[C@@H](NC(=O)CNC(=O)[C@H](Cc1c[nH]cn1)NC(=O)C(C)(C)NC(=O)[C@@H](N)Cc1c[nH]cn1)[C@@H](C)O)[C@@H](C)O)C(=O)N[C@@H](CC(C)C)C(=O)N[C@@H](CC(C)C)C(=O)N[C@@H](CCC(=O)O)C(=O)N[C@@H](CCCCNC(=O)COCCOCCNC(=O)COCCOCCNC(=O)CC[C@H](NC(=O)CCCCCCCCCCCCCCCCCCC(=O)O)C(=O)O)C(=O)N[C@@H](CCC(N)=O)C(=O)N[C@@H](C)C(=O)N[C@@H](C)C(=O)N[C@@H](CCC(N)=O)C(=O)N[C@@H](CCC(=O)O)C(=O)N[C@@H](Cc1ccccc1)C(=O)N[C@H](C(=O)N[C@@H](CCC(=O)O)C(=O)N[C@@H](Cc1c[nH]c2ccccc12)C(=O)N[C@@H](CC(C)C)C(=O)N[C@@H](CC(C)C)C(=O)N[C@@H](C)C(=O)N[C@H](CCC(=O)O)C(=O)NCC(=O)N1CCC[C@H]1C(=O)N[C@@H](CO)C(=O)N[C@@H](CO)C(=O)NCC(=O)N[C@@H](C)C(=O)N1CCC[C@H]1C(=O)N1CCC[C@H]1C(=O)N1CCC[C@H]1C(=O)N[C@@H](CO)C(N)=O)C(C)C
B4: Compound No. 0154 (peptide)
peptide: H[Aib]QGTFTSDYSILLEK([AEEA-AEEA-γGlu-C20 diacid])KAAQEFVEWLLAGGPSSGAPPPS-NH2
modifications: N-terminus assumed
SMILES: CC[C@H](C)[C@H](NC(=O)[C@H](CO)NC(=O)[C@H](Cc1ccc(O)cc1)NC(=O)[C@H](CC(=O)O)NC(=O)[C@H](CO)NC(=O)[C@@H](NC(=O)[C@H](Cc1ccccc1)NC(=O)[C@@H](NC(=O)CNC(=O)[C@H](CCC(N)=O)NC(=O)C(C)(C)NC(=O)[C@@H](N)Cc1c[nH]cn1)[C@@H](C)O)[C@@H](C)O)C(=O)N[C@@H](CC(C)C)C(=O)N[C@@H](CC(C)C)C(=O)N[C@@H](CCC(=O)O)C(=O)N[C@@H](CCCCNC(=O)COCCOCCNC(=O)COCCOCCNC(=O)CC[C@H](NC(=O)CCCCCCCCCCCCCCCCCCC(=O)O)C(=O)O)C(=O)N[C@@H](CCCCN)C(=O)N[C@@H](C)C(=O)N[C@@H](C)C(=O)N[C@@H](CCC(N)=O)C(=O)N[C@@H](CCC(=O)O)C(=O)N[C@@H](Cc1ccccc1)C(=O)N[C@H](C(=O)N[C@@H](CCC(=O)O)C(=O)N[C@@H](Cc1c[nH]c2ccccc12)C(=O)N[C@@H](CC(C)C)C(=O)N[C@@H](CC(C)C)C(=O)N[C@@H](C)C(=O)NCC(=O)NCC(=O)N1CCC[C@H]1C(=O)N[C@@H](CO)C(=O)N[C@@H](CO)C(=O)NCC(=O)N[C@@H](C)C(=O)N1CCC[C@H]1C(=O)N1CCC[C@H]1C(=O)N1CCC[C@H]1C(=O)N[C@@H](CO)C(N)=O)C(C)C
B5: Compound No. 0155 (peptide)
peptide: H[Aib]QGTFTSDYSI[αMeL]LEK([AEEA-AEEA-γGlu-C20 diacid])KAAQEFVEWLLAGGPSSGAPPPS-NH2
modifications: N-terminus assumed
SMILES: CC[C@H](C)[C@H](NC(=O)[C@H](CO)NC(=O)[C@H](Cc1ccc(O)cc1)NC(=O)[C@H](CC(=O)O)NC(=O)[C@H](CO)NC(=O)[C@@H](NC(=O)[C@H](Cc1ccccc1)NC(=O)[C@@H](NC(=O)CNC(=O)[C@H](CCC(N)=O)NC(=O)C(C)(C)NC(=O)[C@@H](N)Cc1c[nH]cn1)[C@@H](C)O)[C@@H](C)O)C(=O)N[C@@](C)(CC(C)C)C(=O)N[C@@H](CC(C)C)C(=O)N[C@@H](CCC(=O)O)C(=O)N[C@@H](CCCCNC(=O)COCCOCCNC(=O)COCCOCCNC(=O)CC[C@H](NC(=O)CCCCCCCCCCCCCCCCCCC(=O)O)C(=O)O)C(=O)N[C@@H](CCCCN)C(=O)N[C@@H](C)C(=O)N[C@@H](C)C(=O)N[C@@H](CCC(N)=O)C(=O)N[C@@H](CCC(=O)O)C(=O)N[C@@H](Cc1ccccc1)C(=O)N[C@H](C(=O)N[C@@H](CCC(=O)O)C(=O)N[C@@H](Cc1c[nH]c2ccccc12)C(=O)N[C@@H](CC(C)C)C(=O)N[C@@H](CC(C)C)C(=O)N[C@@H](C)C(=O)NCC(=O)NCC(=O)N1CCC[C@H]1C(=O)N[C@@H](CO)C(=O)N[C@@H](CO)C(=O)NCC(=O)N[C@@H](C)C(=O)N1CCC[C@H]1C(=O)N1CCC[C@H]1C(=O)N1CCC[C@H]1C(=O)N[C@@H](CO)C(N)=O)C(C)C

biological target: T2, human glucagon receptor (human, UniProt P47871 26-477); test: cell-based or functional assay
T2 sequence (P47871 26-477): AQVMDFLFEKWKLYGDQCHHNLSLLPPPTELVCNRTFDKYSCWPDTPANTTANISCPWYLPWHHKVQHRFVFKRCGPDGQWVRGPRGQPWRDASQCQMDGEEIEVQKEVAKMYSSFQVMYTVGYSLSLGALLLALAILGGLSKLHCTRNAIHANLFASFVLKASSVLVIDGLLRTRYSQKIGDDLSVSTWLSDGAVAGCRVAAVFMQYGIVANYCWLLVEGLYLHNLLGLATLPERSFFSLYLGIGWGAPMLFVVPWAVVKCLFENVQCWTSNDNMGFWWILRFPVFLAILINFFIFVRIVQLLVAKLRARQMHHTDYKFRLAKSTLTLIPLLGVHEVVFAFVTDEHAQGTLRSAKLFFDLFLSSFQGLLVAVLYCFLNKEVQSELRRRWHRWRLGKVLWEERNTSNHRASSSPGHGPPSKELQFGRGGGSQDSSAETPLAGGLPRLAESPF

Point of comparison: H[Aib]HGTFTSDYS[αMeK]YLEK([AEEA-AEEA-γGlu-C20 diacid])KAAQEFVEWLIEGGPSSGAPPPS-NH2 [Compound No. 0115], “Activity against human GCGR (EC50 nM)” value 0.425 nM. Against it:
- B1 — 4.9-fold lower, 0.087 nM

biological target: T3, human glucagon-like peptide-1 receptor (human, UniProt P43220 24-463); test: cell-based or functional assay

Point of comparison: B1, “Activity against human GLP-1R (EC50 nM)” value 0.031 nM. Against it:
- H[Aib]HGTFTSDYS[αMeK]YLEK([AEEA-AEEA-γGlu-C20 diacid])KAAQEFVEWLIEGGPSSGAPPPS-NH2 [Compound No. 0115] — within 1.5-fold, 0.023 nM

biological target: T1, human glucose-dependent insulinotropic …; test: cell-based or functional assay

Point of comparison: H[Aib]HGTFTSDYS[αMeK]YLEK([AEEA-AEEA-γGlu-C20 diacid])KAAQEFVEWLIEGGPSSGAPPPS-NH2 [Compound No. 0115], “Activity against human GIPR (EC50 nM)” value 0.051 nM. Against it:
- B1 — 10-fold lower, 0.005 nM

biological target: T2, human glucagon receptor; test: cell-based or functional assay; remark: another data set of the same source

Point of comparison: B3, “Activity against human GCGR (EC50 nM)” value 0.334 nM. Against it:
- B2 — within 1.5-fold, 0.29 nM
- B4 — 4.9-fold higher, 1.62 nM
- B5 — 11-fold higher, 3.65 nM

biological target: T3, human glucagon-like peptide-1 receptor; test: cell-based or functional assay; remark: another data set of the same source

Point of comparison: B5, “Activity against human GLP-1R (EC50 nM)” value 0.036 nM. Against it:
- B2 — 1.5-fold higher, 0.054 nM
- B3 — within 1.5-fold, 0.051 nM
- B4 — within 1.5-fold, 0.033 nM

biological target: T1, human glucose-dependent insulinotropic …; test: cell-based or functional assay; remark: another data set of the same source

Point of comparison: B3, “Activity against human GIPR (EC50 nM)” value 0.01 nM. Against it:
- B2 — within 1.5-fold, 0.009 nM
- B4 — 3.1-fold higher, 0.031 nM
- B5 — within 1.5-fold, 0.014 nM
